The record followed here is PMC6628566.

The target of this assay is CX3CR1 (UniProt P49238).
UniProt P49238, sequence (P49238 whole entry): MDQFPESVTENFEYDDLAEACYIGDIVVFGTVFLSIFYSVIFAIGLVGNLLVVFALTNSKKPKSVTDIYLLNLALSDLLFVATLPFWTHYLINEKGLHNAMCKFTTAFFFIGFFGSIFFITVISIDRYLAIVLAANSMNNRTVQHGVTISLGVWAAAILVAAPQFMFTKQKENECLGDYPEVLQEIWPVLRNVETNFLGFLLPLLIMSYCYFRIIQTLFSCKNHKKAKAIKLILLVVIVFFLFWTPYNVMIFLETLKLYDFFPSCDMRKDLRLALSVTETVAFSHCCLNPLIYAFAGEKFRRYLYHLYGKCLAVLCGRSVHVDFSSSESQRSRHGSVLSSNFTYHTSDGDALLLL

“chemokine domain-only peptide of fractalkine (ckFKN) (domain or fragment)”: the fold decrease in receptor binding affinity against sFKN came out at 10 fold.
